Variants at the floor of the assay were thinned out.
B1: TPR 5TU (parent)
chain: GGAUCUUCUCGAUCUAACAAAAAAGACAAAUCUGCCACAAAGCUUGAGAGCAUCUUCGGAUGCAGAGGCGGCAGCCUUCGGUGGCGCGAUAGCGCCAACGUUCUCAACUAUGACACGCAAAACGCGUGCUCCGUUGAAUGGAGUUUAUCAUG

Variants of: B1
Assay: polymerase ribozyme fitness, log enrichment relative to wild type (log ratio); higher = more active; in vitro selection for triplet polymerase activity
Summary of the method: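 Both subunits of a heterodimeric triplet polymerase ribozyme were given their own mutant library, built by PCR and transcribed. Each library was annealed with a biotinylated primer, the partner subunit and triplets, incubated frozen at −7 °C, and its extended constructs gel-excised, captured on streptavidin beads and amplified by RT-PCR, all in one round done in triplicate. Fitness is the logarithm of genotype enrichment relative to wild-type enrichment, with replicates averaged by inverse-variance weighting. That logarithm is base 2, and Illumina-sequenced genotypes needed ≥10 input reads and ≥1 read per output.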
With GGAUCUUCUCGAUCUAUCACAAAAGCCAAAUCUGCCACAAAGCUUGAGAGCAUCUUCGGAUGCAGAGGCGGCAGCCUUCGGUGGCGCGAUAGUGCCAACGUUCUCAACUAUGACACGCAAAACGCGUGCUUCGUUGAAUGGAGUUUAUCAUG the “polymerase ribozyme fitness (log ratio)” value was -2.3.
In the case of GGAUCUUCUCGAUCUAUCAAAAAAGACAAAUCUGCCACAAAGCUUGAGAGCAUCUUCGGAUGCAGAGGCGGCAGCCUUCGGUGGCGCGAUAGCGCCAACGUUCUCAACUAUGACACGCAAAACGCGUGCUCCGUUGAAUGGAGUUUAUCAUG, the “polymerase ribozyme fitness (log ratio)” value is reported as -0.256.
For GGAUCUUCUCGAUCUAGCAAAAAAGACAAACCUGGCACAAAGCUUGAGAGCAUCUUCGGAUGCAGAGGCGGCAGCCUUCGGUGGCACGAUAGCGCCAACGUUCUCAACUAUGACACGCAAUACGCGUGCUCCGUUGAAUGGAGUUUAUCAUG, the “polymerase ribozyme fitness (log ratio)” value was -4.19.
With GGAUCUUCUCGAUCUAGCAAAAAAGACAAAUCUGCCACAAAGCUUGAGAGCAUCUUCGGAUGCAGAGGCGGCAGCCUUCGGUGACGCGAUAGCGCCAACGUUCUCAACUAUGACACGCAAAACGCGUGCUCCGUUGAAUGGAGUUUCUCAUG the “polymerase ribozyme fitness (log ratio)” value was -0.273.
With GGAUCUUCUCGAUCUAGCAAAAAAGACAAAUCUGCCACAAAGCUUGAGAGCAUCUUCGGAUGCAGAGGCGGCAGCCUUCGGUGGCGCGAUAGCGCCAACGUUCUCAACUAUGACACGCAAAACGCGUGCUCCGUUGAAUGGAGUCUAUCAUG the “polymerase ribozyme fitness (log ratio)” value was 0.174.
For GGAUCUUCUCGAUCUAGCAAAAAAGACAAAUCUGCCACAAAGCUUGAGAGCAUCUUCGGAAGCAGAGGCGACAGCCUUCGGUGGCGCGAUAGCGCCAACGUUCUCAACUAUGACACGCAAAACGCGUGCUCCGUUGAAUGGAAUUUAUCAUG, the “polymerase ribozyme fitness (log ratio)” value was no more than -4.2.
In the case of GGAUCUUCUCGAUCUAUCAAGAAAGAGUAAUCUGCCACAAAGCUUGAGAGCAUCUUCGGAUGCAGAGGCGGCAGCCUUCGGUGGAGUGAUAGCGGCAACGUUCUCAACUAUGACACGCAAAACGCGUGCUCCGUUGAAUGGAGUUUAUCAUG, the “polymerase ribozyme fitness (log ratio)” value is reported as no more than -4.2.
For GGAUCUUCUCGAUCUAGCAAAAAAGACAAAUCUGCCACAAAGCUUAAGAGCAUCUUCGGAUGCAGAGGAGGCAGCCUUCGGUGGCGCGAUAGCGCCAACGUUCUCAACUAUGACACGCAAGACGCGUGCUCCGUUGAAUGGAGUUUAUCAUG, the “polymerase ribozyme fitness (log ratio)” value was -3.45.
With GGAUCUUCUCGAUCUAUCUAAUAAGACAAAUCUGCCACAAAGCUUGAGAGCAUCUUCGGAAGCAGAGGCGGCAGCCUUCGGUAACGCGAUAGCGCCAACUUUCUCAACUAUGACACGCAAAACGCGUGCUCCGUUGAAUGGAGUUUAUCAUG the “polymerase ribozyme fitness (log ratio)” value was no more than -4.2.
For GGAUCUUCUCGAUCUAGCAAAAAAGACAAAUCUGCCACAAAGCUUGAGAGCAACUUCGGAUGCAGAGGCGGCAGCCUUCGGUGGCGCGAUAGCGCCAAGGUUCUCAACUAUGACACGCAAAACGCGUGCCCCGUUGAAUGGAGUUUAUCAUG, the “polymerase ribozyme fitness (log ratio)” value was no more than -4.2.
With GGAUCUUCUCGAUCUAGCAAAAAAGACAAAACUGCCACAAAGCUUGAGAGCAUCUUCGGAUGCAGAGGCGGCAGCCUUCGGUGGCGCGACAGUGCCAAGGUUCUCAACUAUGACACGCAAAACGAGUGCUCCGUUGCAUGGACUUUAUCAUG the “polymerase ribozyme fitness (log ratio)” value was no more than -4.2.
With GGAUCUUCUCGAUCUAGCAAAAAAGACAAAUCUGCCACAAAGCUGGAGAGCAUCUUCGGAUGCAGAGGCGGCAGCCUUCUGUGGCGCGAUAGCGCCAACGUUCUCAACUAUGACACGCAAAACGCGUGCUCCGUUGAAUGGAGUUUAUCAUG the “polymerase ribozyme fitness (log ratio)” value was no more than -4.2.
For GGAUCUUCUCGAUCUAGCAAAAAAGACAAAUCUGCCACAAAGCUUGAGAGCAUCUUCGGAUGCAGAGGCGGCAGCCUUCGGUGGGGCGAUAGCGCCAACGUUCUCAACUAUGACACGCAAAACGCGUGCUCCGUUGAAUGGAGUUUAUCAUG, the “polymerase ribozyme fitness (log ratio)” value was -1.33.
With GGAUCUUCUCGAUCUAGCAAAAAAGACAAAUCUGCCACAAAGCUUGAGAGCAUCUUCGGAUGCAGACGCGGCAGCCUUCGGUGGCACGAUAGCGCCAACGUUCUCAACUAUGACACGCAAAACGCGUGCUCCGUUGAAUGGAGUUUAUCAUG the “polymerase ribozyme fitness (log ratio)” value was no more than -4.2.
With GGAUCUUCUCGAUCUAGCAAAAAAGACAAAUCUGCCACAAAGCUUGAGAGCAUCUUCGGAUGCAGAGGCGGCAGCCUUCGGUGGCGAGAUAGCGCCAACGUUUUCAACUAUGACACGCAAAACGCGUGCUCCGUUGAAUGGAGUUUAUCAUG the “polymerase ribozyme fitness (log ratio)” value was no more than -4.2.
In the case of GGAUCUUCUCGAUCUAGCAAAAAAGACAAAUCUGCCACAAAGCUUGAGAGCAUCUUCGGAUGCAGAGGCGGCAGCCUUCGGUGGCGCGAUAGCGCCAACGUUCUCAACUAUGACACGCAAAACGCGUGCUCGGUUGAAUGGAGUUUAUCAUG, the “polymerase ribozyme fitness (log ratio)” value is reported as -3.28.
In the case of GGAUCUUCUCGAUCUAGCAAAAAAGACAAAUCUGCCACAAAGCUUGAGAGCAUCUUCGGAUGCAGAGGCGACAGCCUUCGGUGGCGCGAUAGCGCCAACGUUCUCAACUAUGACACGCAAAACGCGUGCUCCGUUGAAUGGAGUUUAUCAUG, the “polymerase ribozyme fitness (log ratio)” value is reported as -3.06.
In the case of GGAUCUUCUCGAUCUAUCUAAGAAGACAAAUCUGCCACAAAGCUUGAGAGCAUCUUCGGAUGCAGAGGCGGCAGCCUUCGGUGGCGCUAUAGCGCCAACGUUCUCAACUGUGACACGCAAAACGCGUGCUCCGUUGAAUGGAGUUUAUCAUG, the “polymerase ribozyme fitness (log ratio)” value is reported as no more than -4.2.
For GGAUCUUCUCGAUCUAUCUAAAAAGACAAAUCUGCCUCAAAGCUUGAGAGCAACUUCAGAUGCAGAGGCGGCAGCCUUCGGUGGCGCGAUAGCGACAACGUUCUCAACUAUGACACGCAAGCCGCGUGCUCCGUUGAAUGGAGUUUAUCAUG, the “polymerase ribozyme fitness (log ratio)” value was -3.75.
In the case of GGAUCUUCUCGAUCUAGCAAAAAAGACAAAUCUGCCACAAAGCUUGAGAUCAUCUUCGGAUGCAGAGGCGGCAGCCUUCGGUGGCGCGAUAGCGUCAACGUUCUCAACUAUGACACGCAAAACCCGUGCUCCGUUGAAUGAAGUUUAUCAUG, the “polymerase ribozyme fitness (log ratio)” value is reported as -0.476.
For GGAUCUUCUCGAUCUAUCAGAAAAGACAAAUCUGCCACAAACCUUGAGAGCAUCUUCGGAUGCAGAGGCGGCAGCCUUCGGUGGUGCGAUAGCGCCAACGUUCUCAACUAUGACACGCAAAACGCGUCCUCCGUUGAAUGGAGUUUAUCAUG, the “polymerase ribozyme fitness (log ratio)” value was no more than -4.2.
With GGAUCUUCUCGAUCUAGCAAAAAAGACAAAUCUGCCACAAAGCUUGAGAGCAUCUUCGGAUGCAGAGGCGGCAGCCUUACGUGGCGCGAUAGCGCCAACGUUCUCAACCAUGACACGCAAAACGCGUGCUCCGUUGAAUGGAGUUUAUCAUG the “polymerase ribozyme fitness (log ratio)” value was no more than -4.2.
With GGAUCUUCUCGAUCUAGCAAAAAAGACAAAUCUGCCACAAAGCUUGAGAGCAUCUUCGGAUGCAGAGGCGGCAGCCUUCGGUGACGCGAUAGCGCCAACGUUCUCAACUAUGACACGCAAAACGCGUGCUCCGUUGAAUGGAGUUUAUCAUG the “polymerase ribozyme fitness (log ratio)” value was -0.469.
In the case of GGAUCUUCUCGAUCUAUCAACAAAGACAAAUCUGCCACAAAGCAUGAGCGCAUCUUCGGAUGCAGAGGCGGAAGCCUUCGGAGGCGCGAUAGCGCCAACGUUCUCAACUAUGACACGCAAAACGCGUGCUCCGAUGAAUGGAGUUUAUCAUG, the “polymerase ribozyme fitness (log ratio)” value is reported as no more than -4.2.
With GGAUCUUCUCGAUCUAGCAAAAAAGACAAAUCUGCCACAAAGCUUGAGAGCAUCUUCGGAUGCAGAGGCGGCAGCCUUCGGUGGCGCGAUAGCGCCAACGUUCUCAACUAUGACACGCAAAACGCGUGGUCCGUUGAAUGGAGUUUAUCAUG the “polymerase ribozyme fitness (log ratio)” value was -3.57.
In the case of GGAUCUUCUCGAUCUAGCAAAAAAGACAAAUCUGCCACAAAGCUUGAGAGCAUCUUCGUAUGCAGAGGCGGCAGCCUUCGGUGGCGCGAUAGCGCCCAGGUUCUCAACUAUGACACGCAAAACGCGUGCUCCGUUGAAUGGAGUUUAUCAUG, the “polymerase ribozyme fitness (log ratio)” value is reported as -2.61.
For GGAUCUUCUCGAUCUAGCAAAAAAGACAAAUCUGCCACAAAGCUUGAGAGCAUCUUCGGAUGCAGAGGCGGCAGCCUUCGGUGGCGCGAUAGCGCCAACGUUCUCAAUUAUGACACGCAAAACGCGUGCUCCGUUGAAUGGAGUUUAUCAUG, the “polymerase ribozyme fitness (log ratio)” value was -3.09.
For GGAUCUUCUCGAUCUAUCAGAAAAGACAAAUCUGCCACAAAGCUUGAGAGCAUCUUCGGAUGAAGAGGCGGCAGCCUUCGGUGGCGCGAUAACGCCAACGUUCUCAACUAUGACACGCAAAACGCGUGCUCCGUUGAAUGGAGUUUAUCUUG, the “polymerase ribozyme fitness (log ratio)” value was -2.12.
In the case of GGAUCUUCUCGAUCUAGCAAAAAAGACAAAUCUGCCACAAAGCUUGAGAGCAUCUUCGGAUGCAGAGGCGGCAGCCUUCGGUGGCGCGAUAGCGCCAACGUUCUCAACUAUGACACGCAAAACGAGUGCUCCGUUGAAUGGAGUUUAUCAUG, the “polymerase ribozyme fitness (log ratio)” value is reported as 0.215.
With GGAUCUUCUCGAUCUAGCAAAAAAGACAAAUCUGCCACAAAGCUUGAGAGCAUCUUCGGAUGCAGAGGCGGCAGCCUUCGGUGGCGCGAUAGAGCCAACGUUCUCGACUAUGACACGCAAAACGCGUGCUCCGUUGAAUGGAGUUUAUCAUG the “polymerase ribozyme fitness (log ratio)” value was -1.94.
In the case of GGAUCUUCUCGAUCUAGCAAAAAAGACAAAUCUGCCACAAAGCUUGAGAGCAUCUUCGGAUGCAGAGGCGGCAGCCUUCGGUGGCGCGAUAGCGCCAACGUUCUCAACGAUGACACGCAAAACGCGUGCUCCGUUGAAUUGAGUUUAUCAUG, the “polymerase ribozyme fitness (log ratio)” value is reported as -3.77.
With GGAUCUUCUCGAUCUAGCAAAAAAGACAAAUCUGCCACAAAGCUAGAGAACAUCUUCGGAUUCAGAGGCGGCAGCCUUGGGUGGCUCGAUAGCGCCAACGUUAUCAACUAUGACACGCAAAACGCGUGCUCCGUUGAAUGGAGUUUAUCAUG the “polymerase ribozyme fitness (log ratio)” value was no more than -4.2.
With GGAUCUUCUCGAUCUAGCAAAAAAGACAAAUCUGCCACAAAGCUUGAGAGCAUCUUCGGAUGCAGAGGCGGAAGCCGUUGGUGGCGCGAUAGCGCCAACGUUCUCAACGAUGACACGCAAAACGCGUGCUCCGUUGAAUGGAGUUUAUCAUG the “polymerase ribozyme fitness (log ratio)” value was no more than -4.2.
With GGAUCUUCUCGAUCUAGCAAAAAAGACAAAUCUGCCACAAAGCUUGAGAGCAUCUUCGGAUGCAGAGGCGGCAGCCUUCGGUGGCGCGACAGUGCCAACGUUCUGAACUAUGACACGCAAAGCGCGUGCUCCGUUGAAUGGACUUUAUCAUG the “polymerase ribozyme fitness (log ratio)” value was no more than -4.2.
In the case of GGAUCUUCUCGAUCUAUCUAAAAAGACAAAUCUGCCACAAAGCUUGAGAGCAUCUUCGGAUGUAGAGCCGGCAGCCUUCGGUGGCGCGAUAGCGUAAACGUUCUCAACUAUGACACGCAAAACGCGUGCUCCGUUGAAUAGAGUUUAUCAUG, the “polymerase ribozyme fitness (log ratio)” value is reported as no more than -4.2.
For GGAUCUUCUCGAUCUAGCAAAAAAGACAAAUCUGCCACAAAGCUUGAGAGCAUCUUCGGAUGCAGAGGCGGCAGCCUUCGGUGGCGCGAUAGCGCCAACGAUCUGAACUAUGACACGCAAAACGCGUGCUCCGUUGAAUGGAGUUUAUCAUG, the “polymerase ribozyme fitness (log ratio)” value was -3.18.
With GGAUCUUCUCGAUCUAGCAAAAAAGACAAAUCUGCCACAAAGCUUGAGAGCAUCUUCGGAUGCAGAGGCGGCAGCCUUCGGUGGCGCGAUAGCGCCAACGUUCUCAACUAUGACACGCAAAACGCGUGCUCCGGUGAAUGGAGUUUAUCAUG the “polymerase ribozyme fitness (log ratio)” value was -1.76.
For GGAUCUUCUCGAUCUAUCAAUAAAGACAAAUCUGCCACAAAGCUUGAGAGCAUCUUCGGAUGCAGACGCGGCAGCUUUCGGUGGCGCGAUUGCGCCAACGUUCUCAACUAUGACACGGAAAACGCGUGCUCCGUUGAAUGGAGUUUAUCAUG, the “polymerase ribozyme fitness (log ratio)” value was no more than -4.2.
